# Experimental data reported in article PMC10786891, “Massively parallel profiling of RNA-targeting CRISPR-Cas13d”.
# T1: EsCas13d, nuclease-dead (Eubacterium siraeum, UniProt B0MS50, R295A;H300A;R849A;H854A)
# T1 sequence: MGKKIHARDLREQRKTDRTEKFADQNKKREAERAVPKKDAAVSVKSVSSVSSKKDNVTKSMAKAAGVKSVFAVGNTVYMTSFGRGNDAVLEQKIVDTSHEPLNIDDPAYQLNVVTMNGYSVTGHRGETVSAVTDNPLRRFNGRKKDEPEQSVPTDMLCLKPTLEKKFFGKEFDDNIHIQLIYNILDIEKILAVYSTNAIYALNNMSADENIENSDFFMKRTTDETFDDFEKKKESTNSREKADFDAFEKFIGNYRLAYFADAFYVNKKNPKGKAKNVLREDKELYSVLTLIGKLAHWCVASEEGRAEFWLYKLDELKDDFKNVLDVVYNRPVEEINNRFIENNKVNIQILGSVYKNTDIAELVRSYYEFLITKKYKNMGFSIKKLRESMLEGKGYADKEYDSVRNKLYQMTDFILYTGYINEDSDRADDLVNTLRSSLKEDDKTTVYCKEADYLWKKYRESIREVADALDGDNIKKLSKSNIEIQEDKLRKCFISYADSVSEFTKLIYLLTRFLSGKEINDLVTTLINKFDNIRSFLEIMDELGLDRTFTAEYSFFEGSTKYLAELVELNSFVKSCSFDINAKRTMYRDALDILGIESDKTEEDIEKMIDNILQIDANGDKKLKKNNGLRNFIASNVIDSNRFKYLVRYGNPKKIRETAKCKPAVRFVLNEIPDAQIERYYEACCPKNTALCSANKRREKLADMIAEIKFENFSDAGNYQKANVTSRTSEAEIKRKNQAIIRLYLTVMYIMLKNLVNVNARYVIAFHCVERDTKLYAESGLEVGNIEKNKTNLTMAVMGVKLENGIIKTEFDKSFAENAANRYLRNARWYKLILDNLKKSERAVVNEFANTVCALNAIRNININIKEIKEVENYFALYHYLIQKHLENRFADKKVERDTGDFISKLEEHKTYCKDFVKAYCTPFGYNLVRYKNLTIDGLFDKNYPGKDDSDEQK
# Biological target: T1, EsCas13d, nuclease-dead
# Assay: crRNA (strand 1, pre-loaded); Mg2+; 40 mM Tris-HCl pH 7.5, 150 mM NaCl, 6 mM MgCl2, 1 mM DTT, 0.1% Tween-20, 0.2 mg/ml BSA; 25 C; 10 min per concentration, then washed
# Details: tags: His6-TwinStrep-SUMO cleaved; N-terminal SNAP kept (SNAP-Surface 488); label: 3' end held by stalled T7 RNA polymerase
row,Binder,Kd [nM]
1,"target 1 A18C,U19G (mixed) RNA 1: CACCCGUGCAAAAAUGCAGGGGUCUAAAACUGAGCGGAUAACCUCUCUAUGG RNA 2: GGGAAUGGAUCCACAUCUACGAAUUCGUACCAGCGAGAGGUUAUCCGCUCACCGAGAUCGGAAGAGCACACGU",55 ± 14
2,"target 1 insC 3' of 18,insG 3' of 1 (mixed) RNA 1: CACCCGUGCAAAAAUGCAGGGGUCUAAAACUGAGCGGAUAACCUCUCUAUGG RNA 2: GGGAAUGGAUCCACAUCUACGAAUUCGUACCAUACGAGAGGUUAUCCGCUCAGCCGAGAUCGGAAGAGCACACGU",34 ± 4
3,"target 1 insU 3' of 20,insA 3' of 4 (mixed) RNA 1: CACCCGUGCAAAAAUGCAGGGGUCUAAAACUGAGCGGAUAACCUCUCUAUGG RNA 2: GGGAAUGGAUCCACAUCUACGAAUUCGUACCAUUAGAGAGGUUAUCCGCAUCACCGAGAUCGGAAGAGCACACGU",8.6 ± 0.7
4,"target 3 insC 3' of 4,insA 3' of 3 (mixed) RNA 1: CACCCGUGCAAAAUUGCAGGGGUCUAAAACGACCUGAAUAUUUCAGAUCAAA RNA 2: GGGAAUGGAUCCACAUCUACGAAUUCGUUUUUGAUCUGAAAUAUUCAGCGAUCUGCAGAUCGGAAGAGCACACGU",34 ± 4.05
5,"target 3 insC 3' of 4,insU 3' of 3 (mixed) RNA 1: CACCCGUGCAAAAUUGCAGGGGUCUAAAACGACCUGAAUAUUUCAGAUCAAA RNA 2: GGGAAUGGAUCCACAUCUACGAAUUCGUUUUUGAUCUGAAAUAUUCAGCGUUCUGCAGAUCGGAAGAGCACACGU",29.1 ± 3.6
6,"target 3 U2G,A5G (mixed) RNA 1: CACCCGUGCAAAAUUGCAGGGGUCUAAAACGACCUGAAUAUUUCAGAUCAAA RNA 2: GGGAAUGGAUCCACAUCUACGAAUUCGUUUUUGAUCUGAAAUAUUCGGGGCUGCAGAUCGGAAGAGCACACGU",2.54 ± 0.36
7,"target 3 C1G,U7G (mixed) RNA 1: CACCCGUGCAAAAUUGCAGGGGUCUAAAACGACCUGAAUAUUUCAGAUCAAA RNA 2: GGGAAUGGAUCCACAUCUACGAAUUCGUUUUUGAUCUGAAAUAUGCAGGUGUGCAGAUCGGAAGAGCACACGU",28.9 ± 5.65
8,"target 3 insU 3' of 19,insU 3' of 3 (mixed) RNA 1: CACCCGUGCAAAAUUGCAGGGGUCUAAAACGACCUGAAUAUUUCAGAUCAAA RNA 2: GGGAAUGGAUCCACAUCUACGAAUUCGUUUUUGUAUCUGAAAUAUUCAGGUUCUGCAGAUCGGAAGAGCACACGU",105 ± 45
9,target 3 A12C (mixed) RNA 1: CACCCGUGCAAAAUUGCAGGGGUCUAAAACGACCUGAAUAUUUCAGAUCAAA RNA 2: GGGAAUGGAUCCACAUCUACGAAUUCGUUUUUGAUCUGACAUAUUCAGGUCUGCAGAUCGGAAGAGCACACGU,53 ± 8.5
10,"target 3 insG 3' of 5,insA 3' of 3 (mixed) RNA 1: CACCCGUGCAAAAUUGCAGGGGUCUAAAACGACCUGAAUAUUUCAGAUCAAA RNA 2: GGGAAUGGAUCCACAUCUACGAAUUCGUUUUUGAUCUGAAAUAUUCAGGGAUCUGCAGAUCGGAAGAGCACACGU",17.2 ± 2.55
11,"target 3 insA 3' of 22,insG 3' of 6 (mixed) RNA 1: CACCCGUGCAAAAUUGCAGGGGUCUAAAACGACCUGAAUAUUUCAGAUCAAA RNA 2: GGGAAUGGAUCCACAUCUACGAAUUCGUUUAUUGAUCUGAAAUAUUCGAGGUCUGCAGAUCGGAAGAGCACACGU",12.2 ± 1.3
12,"target 3 insA 3' of 8,insU 3' of 4 (mixed) RNA 1: CACCCGUGCAAAAUUGCAGGGGUCUAAAACGACCUGAAUAUUUCAGAUCAAA RNA 2: GGGAAUGGAUCCACAUCUACGAAUUCGUUUUUGAUCUGAAAUAUAUCAGUGUCUGCAGAUCGGAAGAGCACACGU",21.8 ± 3.6
13,target 3 A11C (mixed) RNA 1: CACCCGUGCAAAAUUGCAGGGGUCUAAAACGACCUGAAUAUUUCAGAUCAAA RNA 2: GGGAAUGGAUCCACAUCUACGAAUUCGUUUUUGAUCUGAACUAUUCAGGUCUGCAGAUCGGAAGAGCACACGU,81.5 ± 34
14,target 3 complement block 4-7 (mixed) RNA 1: CACCCGUGCAAAAUUGCAGGGGUCUAAAACGACCUGAAUAUUUCAGAUCAAA RNA 2: GGGAAUGGAUCCACAUCUACGAAUUCGUUUUUGAUCUGAAAUAUAGUCGUCUGCAGAUCGGAAGAGCACACGU,23.6 ± 1.75
15,"target 3 insA 3' of 22,insC 3' of 19 (mixed) RNA 1: CACCCGUGCAAAAUUGCAGGGGUCUAAAACGACCUGAAUAUUUCAGAUCAAA RNA 2: GGGAAUGGAUCCACAUCUACGAAUUCGUUUAUUGCAUCUGAAAUAUUCAGGUCUGCAGAUCGGAAGAGCACACGU",91 ± 25.5
16,"target 3 G4A,A18G (mixed) RNA 1: CACCCGUGCAAAAUUGCAGGGGUCUAAAACGACCUGAAUAUUUCAGAUCAAA RNA 2: GGGAAUGGAUCCACAUCUACGAAUUCGUUUUUGGUCUGAAAUAUUCAAGUCUGCAGAUCGGAAGAGCACACGU",13.7 ± 1.15
17,"target 3 U2G,U8C (mixed) RNA 1: CACCCGUGCAAAAUUGCAGGGGUCUAAAACGACCUGAAUAUUUCAGAUCAAA RNA 2: GGGAAUGGAUCCACAUCUACGAAUUCGUUUUUGAUCUGAAAUACUCAGGGCUGCAGAUCGGAAGAGCACACGU",20.6 ± 2.2
18,"target 3 U7G,A18G (mixed) RNA 1: CACCCGUGCAAAAUUGCAGGGGUCUAAAACGACCUGAAUAUUUCAGAUCAAA RNA 2: GGGAAUGGAUCCACAUCUACGAAUUCGUUUUUGGUCUGAAAUAUGCAGGUCUGCAGAUCGGAAGAGCACACGU",64 ± 22.5
19,"target 3 C6U,A11U (mixed) RNA 1: CACCCGUGCAAAAUUGCAGGGGUCUAAAACGACCUGAAUAUUUCAGAUCAAA RNA 2: GGGAAUGGAUCCACAUCUACGAAUUCGUUUUUGAUCUGAAUUAUUUAGGUCUGCAGAUCGGAAGAGCACACGU",92 ± 24
20,"target 3 C1G,A5C (mixed) RNA 1: CACCCGUGCAAAAUUGCAGGGGUCUAAAACGACCUGAAUAUUUCAGAUCAAA RNA 2: GGGAAUGGAUCCACAUCUACGAAUUCGUUUUUGAUCUGAAAUAUUCCGGUGUGCAGAUCGGAAGAGCACACGU",83.5 ± 23
21,"target 3 C6A,U7G (mixed) RNA 1: CACCCGUGCAAAAUUGCAGGGGUCUAAAACGACCUGAAUAUUUCAGAUCAAA RNA 2: GGGAAUGGAUCCACAUCUACGAAUUCGUUUUUGAUCUGAAAUAUGAAGGUCUGCAGAUCGGAAGAGCACACGU",58 ± 6.5
22,"target 3 C1U,U2G (mixed) RNA 1: CACCCGUGCAAAAUUGCAGGGGUCUAAAACGACCUGAAUAUUUCAGAUCAAA RNA 2: GGGAAUGGAUCCACAUCUACGAAUUCGUUUUUGAUCUGAAAUAUUCAGGGUUGCAGAUCGGAAGAGCACACGU",91 ± 20
23,"target 3 U7G,U22A (mixed) RNA 1: CACCCGUGCAAAAUUGCAGGGGUCUAAAACGACCUGAAUAUUUCAGAUCAAA RNA 2: GGGAAUGGAUCCACAUCUACGAAUUCGUUAUUGAUCUGAAAUAUGCAGGUCUGCAGAUCGGAAGAGCACACGU",41 ± 5.5
24,"target 3 insA 3' of 8,insU 3' of 3 (mixed) RNA 1: CACCCGUGCAAAAUUGCAGGGGUCUAAAACGACCUGAAUAUUUCAGAUCAAA RNA 2: GGGAAUGGAUCCACAUCUACGAAUUCGUUUUUGAUCUGAAAUAUAUCAGGUUCUGCAGAUCGGAAGAGCACACGU",70 ± 20
25,"target 3 insA 3' of 7,insU 3' of 3 (mixed) RNA 1: CACCCGUGCAAAAUUGCAGGGGUCUAAAACGACCUGAAUAUUUCAGAUCAAA RNA 2: GGGAAUGGAUCCACAUCUACGAAUUCGUUUUUGAUCUGAAAUAUUACAGGUUCUGCAGAUCGGAAGAGCACACGU",76 ± 32
26,target 3 A5C (mixed) RNA 1: CACCCGUGCAAAAUUGCAGGGGUCUAAAACGACCUGAAUAUUUCAGAUCAAA RNA 2: GGGAAUGGAUCCACAUCUACGAAUUCGUUUUUGAUCUGAAAUAUUCCGGUCUGCAGAUCGGAAGAGCACACGU,64.5 ± 11
27,"target 3 A12G,U22A (mixed) RNA 1: CACCCGUGCAAAAUUGCAGGGGUCUAAAACGACCUGAAUAUUUCAGAUCAAA RNA 2: GGGAAUGGAUCCACAUCUACGAAUUCGUUAUUGAUCUGAGAUAUUCAGGUCUGCAGAUCGGAAGAGCACACGU",40.5 ± 5.5
28,"target 3 A5G,A13G (mixed) RNA 1: CACCCGUGCAAAAUUGCAGGGGUCUAAAACGACCUGAAUAUUUCAGAUCAAA RNA 2: GGGAAUGGAUCCACAUCUACGAAUUCGUUUUUGAUCUGGAAUAUUCGGGUCUGCAGAUCGGAAGAGCACACGU",~100
